Stoichiometry N and stoichiometry N (τ pentamer per DnaB hexamer) data for three substances are collected here from publication PMC3034353.

Assay [1] addresses Bacillus subtilis τ protein (wild type) (B. subtilis) (UniProt P09122). Briefly: SEC.
The target of assay [2] is Bacillus stearothermophilus DnaB helicase (B. stearothermophilus) (UniProt Q9X4C9). Briefly: AUC.
In assay [3] the target is Bacillus subtilis τ protein L381A mutant (B. subtilis) (UniProt P09122). Briefly: SEC.
Assay [4] shares this target. Briefly: AUC.
The target in assay [5] is Bacillus subtilis τ protein L381P mutant (B. subtilis) (UniProt P09122). Briefly: SEC.

Consider “Bacillus subtilis τ protein (wild type) (from UniProt P09122 1-563) (natural protein)”, for which, in assay [1], the stoichiometry N came to 4. In addition, the stoichiometry N (τ pentamer per DnaB hexamer) in assay [2] was determined as 1.
For “Bacillus subtilis τ protein L381A mutant (from UniProt P09122 1-563) (natural protein)”, the figures for the stoichiometry N in assay [3] and in assay [4] were 3 and 4, respectively.
As to “Bacillus subtilis τ protein L381P mutant (from UniProt P09122 1-563) (natural protein)”, the stoichiometry N in assay [5] was determined as 3.
